Experiment [1] has as its target T1, recombinant human lymphotoxin-α homotrimer (human LTα3) (human, UniProt P01374 35-205).
T1 construct: Coated on plates in the ELISAs; also called rhLTα; lymphotoxin-α3 trimer
T1 sequence (looked up): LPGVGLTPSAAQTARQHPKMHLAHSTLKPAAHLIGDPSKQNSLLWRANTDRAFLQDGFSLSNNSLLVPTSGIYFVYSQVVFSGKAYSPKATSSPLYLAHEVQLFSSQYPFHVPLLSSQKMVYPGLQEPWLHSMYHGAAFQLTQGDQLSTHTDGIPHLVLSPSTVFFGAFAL
Kind of experiment: plate ELISA, IgG. Background: An ELISA detects its analyte on a solid surface through an enzyme-linked reagent.

The target of experiment [2] is T1, recombinant human lymphotoxin-α …. Kind of experiment: plate ELISA on coated human LTα.
For experiment [3] the target is unchanged. Kind of experiment: phage competitive ELISA: rhLTα in solution competes with plate-coated LTα. How it is done: (§1) For the first round, phage were captured for 2 hours against 2 μg/ml plate-coated LTα at ambient temperature. The second and third rounds of selection were performed at ambient temperature by capturing phage for 30 minutes with 2 nM biotinylated LTα in solution phase, followed by capture on neutravidin-coated plates. The highest affinity clone was identified using a competitive ELISA. Constant concentrations of phage clones (normalized by solid-phase LTα binding OD) were incubated with increasing concentrations of LTα (0-50 nM) in solution before capture on a plate coated with 2 μg/ml LTα.

For experiment [4] the target is unchanged. Description: phage competitive ELISA, LTα (0-50 nM) in solution against plate-coated LTα. How it is done:
as §1

For experiment [5] the target is unchanged. Kind of experiment: direct ELISA on plate-coated human LTα3 (1 µg/ml).
Experiment [6] shares this target. Kind of experiment: blocking ELISA: biotinylated human LTα3 preincubated with the antibody, then captured on coated TNFRII.huIgG1 (m10).
Experiment [7] shares this target. Description: plate ELISA on coated LTα.
Experiment [8] addresses T2, murine cell-surface LTαβ complex on transfected SVT2 cells (murine, UniProt P09225 34-202; P41155 1-306).
T2 construct: whole, on cells; also called murine LTαβ
T2 sequence (looked up) 1: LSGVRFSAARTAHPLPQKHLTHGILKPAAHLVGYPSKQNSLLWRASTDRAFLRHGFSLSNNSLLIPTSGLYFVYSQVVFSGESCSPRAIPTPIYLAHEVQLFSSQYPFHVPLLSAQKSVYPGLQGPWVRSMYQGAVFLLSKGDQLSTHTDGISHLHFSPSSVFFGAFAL
T2 sequence (looked up) 2: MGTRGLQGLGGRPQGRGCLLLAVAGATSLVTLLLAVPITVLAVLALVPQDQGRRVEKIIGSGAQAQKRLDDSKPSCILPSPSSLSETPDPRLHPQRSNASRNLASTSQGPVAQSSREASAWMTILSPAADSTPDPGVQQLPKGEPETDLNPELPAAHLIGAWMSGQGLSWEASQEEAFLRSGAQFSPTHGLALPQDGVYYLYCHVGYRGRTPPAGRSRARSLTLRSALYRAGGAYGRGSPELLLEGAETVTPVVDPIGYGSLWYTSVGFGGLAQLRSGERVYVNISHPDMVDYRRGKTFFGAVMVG
Description: FACS on SVT2 cells stably expressing murine LTαβ, reagents conjugated to ALEXA-647. How it is done:
For murine LTαβ, SVT2 cells were transfected with full-length murine LTα and murine LTαβ (murine LTα sequence GenBank Ref NM_{—}010735; murine LTβ sequence GenBank Ref NM_{—}008518) to generate stable murine LTαβ-expressing cell lines. […] Cells were washed, aspirated, and resuspended in PBS with 2% FBS. Cells were analyzed on a FACSCALIBUR™ (dual laser) using […]™ software, and results analyzed on a FLOWJO™ analyzer (Treestar).

The target of experiment [9] is T1, recombinant human lymphotoxin-α …. Description: BIACORE (rhLTα). On the technique in general: Surface plasmon resonance follows binding to a sensor surface in real time, without labels.
The target is the same in experiment [10]. Kind of experiment: cell-based or functional assay.
The target of experiment [11] is T3, human LTα1β2 heterotrimer (R&D Systems) (human, UniProt P01374 35-205; Q06643 49-244, limits assumed).
T3 construct: also called LTαβ
T3 sequence (looked up) 1: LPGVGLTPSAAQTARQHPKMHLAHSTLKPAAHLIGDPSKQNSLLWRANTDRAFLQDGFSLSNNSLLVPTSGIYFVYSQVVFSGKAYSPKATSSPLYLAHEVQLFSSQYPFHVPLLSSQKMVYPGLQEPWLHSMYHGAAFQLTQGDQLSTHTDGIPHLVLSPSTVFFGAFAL
T3 sequence (looked up) 2: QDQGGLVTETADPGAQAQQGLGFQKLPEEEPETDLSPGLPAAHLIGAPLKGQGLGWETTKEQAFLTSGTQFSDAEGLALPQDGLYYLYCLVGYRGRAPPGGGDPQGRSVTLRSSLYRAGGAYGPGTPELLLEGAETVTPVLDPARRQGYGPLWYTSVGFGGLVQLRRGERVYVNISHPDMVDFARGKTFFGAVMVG
Kind of experiment: ELISA on coated LTα1β2.

Experiment [12] has as its target T4, human cell-surface LTαβ complex (LTα complexed with LTβ on the cell surface) (human, UniProt P01374 35-205; Q06643 1-244).
T4 construct: whole, on cells; also called human LTαβ
T4 sequence (looked up) 1: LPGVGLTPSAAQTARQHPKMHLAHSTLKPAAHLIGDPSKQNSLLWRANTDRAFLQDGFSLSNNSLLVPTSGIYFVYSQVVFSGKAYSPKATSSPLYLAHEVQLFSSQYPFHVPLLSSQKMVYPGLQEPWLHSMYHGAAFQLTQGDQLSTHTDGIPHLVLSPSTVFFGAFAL
T4 sequence (looked up) 2: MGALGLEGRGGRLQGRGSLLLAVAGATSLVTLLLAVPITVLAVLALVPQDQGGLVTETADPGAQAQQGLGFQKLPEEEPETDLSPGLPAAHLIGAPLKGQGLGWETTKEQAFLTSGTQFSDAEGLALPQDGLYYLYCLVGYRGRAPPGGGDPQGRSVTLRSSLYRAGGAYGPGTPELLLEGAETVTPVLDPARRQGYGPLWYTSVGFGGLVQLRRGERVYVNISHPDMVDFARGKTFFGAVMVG
Kind of experiment: FACS titration on human Th2 cells, Alexa Fluor 647 conjugates. How it is done: (§2) Cells were washed, aspirated, and re-suspended in PBS with 2% FBS. Cells were analyzed on a FACSCALIBUR™ (dual laser) using […]™ software, and results analyzed on a FLOWJO™ analyzer (Treestar).

The target of experiment [13] is T1, recombinant human lymphotoxin-α …. Description: plate ELISA on coated LTα. This is another data set of the same source.
Experiment [14] addresses T4, human cell-surface LTαβ complex (LTα …). Kind of experiment: FACS titration on human Th1 cells, Alexa Fluor 647 conjugates. How it is done:
as §2

By IC50 is commonly meant the midpoint of a concentration-inhibition curve. A word on the EC50 (read off the curve): it is the concentration at which the effect is half-maximal. In general, Kd refers to the concentration at which binding is half-saturated.

B1: humanized 2C8.v16 (antibody, human IgG1, V domains shown)
VH: EVQLVESGGGLVQPGGSLRLSCAASGYTFTSYVIHWVRQAPGKGLEWVGYNNPYNDGTNYNEKFKGRFTISSDKSKNTAYLQMNSLRAEDTAVYYCSRPTMLPWFAYWGQGTLVTVSS
VL: DIQMTQSPSSLSASVGDRVTITCRASQAVSSAVAWYQQKPGKAPKLLIYSASHRYTGVPSRFSGSGSGTDFTLTISSLQPEDFATYYCQESYSTPWTFGQGTKVEIKR
notes: Heavy chain: v12 variable domain on human IgG1; copies: 2 + 2
Consider B1, for which the “fold improvement in binding compared to 2C8.v2” value in experiment [1] came to 2 fold. For the same molecule, the “ELISA IC50 ratio” value in experiment [2] was determined as 0.6 ratio.

B2: phage-displayed 2C8 Fab clone A8 (Fab, V domains shown)
VH: EVQLVESGGGLVQPGGSLRLSCAASGYTFTSYVIHWVRQAPGKGLEWVGYNNPYNDGTNYNEKFKGRATISSDKSKNTAYLQMNSLRAEDTAVYYCSRPTMLPWFAYWGQGTLVTVSS
VL: DIQMTQSPSSLSASVGDRVTITCRASQAVSSAVAWYQQKPGKAPKLQIYSASHRYTGVPSRFSGSGSGTDFTLTISSLQPEDFATYYCQESYSTPWTFGQGTKVEIKR
notes: All phagemids kept the wild-type CDR-H3; also called 2C8 clone A8
Turning to B2, the IC50 in [3] was found to be 0.32 nM. Further, the “fold improvement in competition over wild-type 2C8.v2” value in experiment [4] came out at 10 fold.

B3: chimeric anti-LTα antibody 3F12 (original chimera) (antibody, human IgG1, kappa, V domains shown)
VH: QGQLQQSGAELMKPGASVKISCKATGYTFSSYWIEWVKQRPGHGLEWIGEISPGSGSTNYNEEFKGKATFTADKSSNTAYIQLSSLSTSEDSAVYYCADGYHGYWGQGTTLTVSS
VL: DIVMSQSPSSLAVSVGEKVTMSCKSSQSLLYSTNQKNFLAWYQQKPGQSPKLLIYWASTRDSGVPDRFTGSGSGTDFTLTISSVKAEDLAVYYCQQYYSYPRTFGGGTKLEIKR
notes: Murine variable domains on human C kappa and IgG1; also called 3F12 chimera; chimeric 3F12
With B3, the concentration giving a half-maximal response (EC50 (read off the curve)) in [5] is roughly 0.3 nM. In addition, the “IC50 (read off the curve)” value in experiment [6] is roughly 20 nM. The Relative binding in experiment [7] is 1 relative to the original chimera.

B4: LTbR.muIgG2a (Fc fusion, mouse, UniProt P50284 31-223, looked up)
receptor-Fc fusion chain: QLVPPYRIENQTCWDQDKEYYEPMHDVCCSRCPPGEFVFAVCSRSQDTVCKTCPHNSYNEHWNHLSTCQLCRPCDIVLGFEEVAPCTSDRKAECRCQPGMSCVYLDNECVHCEEERLVLCQPGTEAEVTDEIMDTDVNCVPCKPGHFQNTSSPRARCQPHTRCEIQGLVEAAPGTSYSDTICKNPPEPGAMLL
notes: receptor portion of an Fc fusion; also called LTβ-receptor murine IgG2a; muLTβR.IgG2a
Regarding B4, in [8], the binding result is “binds”.

B5: chimeric anti-LTα antibody 2C8 (antibody, human IgG1, kappa, V domains shown)
VH: EVQLQQSGPELVKPGASVKLSCKASGYTFTSYVIHWVKQKPGQGLEWIGYNNPYNDGTNYNEKFKGKATLTSDKSSSTAYMELSSLTSEDSAVYYCSRPTMLPWFAYWGQGTTLTVSA
VL: DIVMTQSHKFMSTSVGDRVSITCKASQAVSSAVAWYQQKPGQSPKLQIYSASHRYTGVPDRFTGSGSGTDFTFTISSVQAEDLAVYYCQQHYSTPWTFGGGTKVEIKR
notes: Murine variable domains on human kappa and human IgG1; also called 2C8 chimera; 2C8.chimera
As for B5, the Kd in experiment [9] stood at 0.6 nM. The “EC50 (read off the curve)” value in [5] is roughly 0.1 nM. Further, in experiment [6], the “IC50 (read off the curve)” value was roughly 5 nM. Further, in experiment [2], the “ELISA IC50 ratio” value turned out to be 1 ratio.

B6: human TNFRII.huIgG1 (ENBREL®) (Fc fusion, UniProt P20333 23-257, looked up)
chain: LPAQVAFTPYAPEPGSTCRLREYYDQTAQMCCSKCSPGQHAKVFCTKTSDTVCDSCEDSTYTQLWNWVPECLSCGSRCSSDQVETQACTREQNRICTCRPGWYCALSKQEGCRLCAPLRKCRPGFGVARPGTETSDVVCKPCAPGTFSNTTSSTDICRPHQICNVVAIPGNASMDAVCTSTSPTRSMAPGAVHLPQPVSTRSQHTQPTPEPSTAPSTSFLLPMGPSPPAEGSTGD
notes: extracellular domain; also called TNFRII.Fc; etanercept; not shown: Fc portion of a human IgG1
As for B6, the “IC50, blocking of human LT-induced cytotoxicity” value in experiment [10] was found to be 0.83 nM. Also, the binding result in experiment [11] is recorded as “no binding”; in experiment [12] it was “no binding (tested: 100 ug/ml)”.

B7: humanized 3F12.v5 (antibody, IgG1, V domains shown)
VH: EVQLVESGGGLVQPGGSLRLSCAASGYTFSSYWIEWVRQAPGKGLEWVGEISPGSGSTNYNEEFKGRATFSADNSKNTAYLQMNSLRAEDTAVYYCADGYHGYWGQGTLVTVSS
VL: DIQMTQSPSSLSASVGDRVTITCKSSQSLLYSTNQKNFLAWYQQKPGKAPKLLIYWASTRDSGVPSRFSGSGSGTDFTLTISSLQPEDFATYYCQQYYSYPRTFGQGTKVEIKR
notes: Human kappa / IgG1 constant domains (vectors of humanized 2G7 version 5); also called version 5
For B7, in experiment [13], the “fold weaker binding than the chimera” value was roughly 5 fold.

B8: LTbR.huIgG1 (Fc fusion, human, UniProt P36941 31-227, looked up)
receptor-Fc fusion chain: QAVPPYASENQTCRDQEKEYYEPQHRICCSRCPPGTYVSAKCSRIRDTVCATCAENSYNEHWNYLTICQLCRPCDPVMGLEEIAPCTSKRKTQCRCQPGMFCAAWALECTHCELLSDCPPGTEAELKDEVGKGNNHCVPCKAGHFQNTSSPSARCQPHTRCENQGLVEAAPGTAQSDTTCKNPLEPLPPEMSGTMLM
notes: receptor portion of an Fc fusion; also called LTβ-receptor.huIgG1; human LTβR.huIgG1
On to B8, for which, in experiment [14], the “EC50 (read off the curve)” value was roughly 0.05 mg/L.

For the origin of these results see US20130011412A1 (Genentech, published 2013).
